How the values were obtained:
Experiment in all cases: two-hybrid
λCI_Arnt362 G341D = λCI_Arnt362 G341D (human, UniProt P27540 1-362, G341D)
λCI_Arnt362 M267K = λCI_Arnt362 M267K (human, UniProt P27540 1-362, M267K)
λCI_Arnt362 A339D = λCI_Arnt362 A339D (human, UniProt P27540 1-362, A339D)
λCI_Arnt362 V306D = λCI_Arnt362 V306D (human, UniProt P27540 1-362, V306D)
λCI_Arnt362 C308R = λCI_Arnt362 C308R (human, UniProt P27540 1-362, C308R)
λCI_Arnt362 L221H = λCI_Arnt362 L221H (human, UniProt P27540 1-362, L221H)
Sequence of λCI_Arnt362 L221H (P27540 1-362 L221H): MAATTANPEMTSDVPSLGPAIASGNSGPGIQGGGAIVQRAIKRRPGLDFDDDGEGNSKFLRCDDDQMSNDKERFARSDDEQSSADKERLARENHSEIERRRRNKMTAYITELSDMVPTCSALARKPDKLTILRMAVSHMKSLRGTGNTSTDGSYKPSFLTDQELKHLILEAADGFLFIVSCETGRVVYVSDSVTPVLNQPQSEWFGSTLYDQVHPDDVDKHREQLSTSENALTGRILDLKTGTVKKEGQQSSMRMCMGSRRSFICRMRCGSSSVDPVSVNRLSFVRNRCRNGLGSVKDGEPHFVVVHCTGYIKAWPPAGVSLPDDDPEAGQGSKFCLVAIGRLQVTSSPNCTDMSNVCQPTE

λCI_Arnt362 C265R = λCI_Arnt362 C265R (human, UniProt P27540 1-362, C265R)
Sequence of λCI_Arnt362 C265R (P27540 1-362 C265R): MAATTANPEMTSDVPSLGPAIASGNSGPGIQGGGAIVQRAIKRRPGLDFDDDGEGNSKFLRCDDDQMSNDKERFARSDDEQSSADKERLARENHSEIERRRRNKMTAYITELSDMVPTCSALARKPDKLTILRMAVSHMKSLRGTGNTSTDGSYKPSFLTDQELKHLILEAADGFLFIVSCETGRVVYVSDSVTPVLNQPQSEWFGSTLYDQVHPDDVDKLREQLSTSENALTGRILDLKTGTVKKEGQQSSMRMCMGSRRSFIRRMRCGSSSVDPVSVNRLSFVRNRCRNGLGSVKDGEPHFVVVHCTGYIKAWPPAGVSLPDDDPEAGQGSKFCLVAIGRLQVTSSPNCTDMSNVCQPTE

Sequence of λCI_Arnt362 M267K (P27540 1-362 M267K): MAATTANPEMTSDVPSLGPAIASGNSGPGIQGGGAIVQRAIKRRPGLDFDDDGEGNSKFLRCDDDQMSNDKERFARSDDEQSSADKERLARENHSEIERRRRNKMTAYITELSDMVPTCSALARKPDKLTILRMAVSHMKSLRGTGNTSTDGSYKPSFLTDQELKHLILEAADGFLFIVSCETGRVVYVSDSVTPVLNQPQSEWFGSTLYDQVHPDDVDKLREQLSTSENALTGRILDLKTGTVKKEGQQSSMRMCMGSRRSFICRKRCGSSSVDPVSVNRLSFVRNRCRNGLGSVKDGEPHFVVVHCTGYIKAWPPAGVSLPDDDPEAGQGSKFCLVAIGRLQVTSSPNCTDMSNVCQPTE
Sequence of λCI_Arnt362 A339D (P27540 1-362 A339D): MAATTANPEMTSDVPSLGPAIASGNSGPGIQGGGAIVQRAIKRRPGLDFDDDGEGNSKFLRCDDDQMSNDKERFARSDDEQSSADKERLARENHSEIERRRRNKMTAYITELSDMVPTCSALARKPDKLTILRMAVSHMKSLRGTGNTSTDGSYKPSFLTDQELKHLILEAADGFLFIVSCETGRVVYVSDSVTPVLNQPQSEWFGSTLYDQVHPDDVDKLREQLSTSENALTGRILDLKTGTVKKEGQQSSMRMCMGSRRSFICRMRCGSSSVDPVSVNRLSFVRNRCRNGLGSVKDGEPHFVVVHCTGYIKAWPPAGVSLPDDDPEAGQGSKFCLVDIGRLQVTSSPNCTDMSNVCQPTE
Sequence of λCI_Arnt362 V306D (P27540 1-362 V306D): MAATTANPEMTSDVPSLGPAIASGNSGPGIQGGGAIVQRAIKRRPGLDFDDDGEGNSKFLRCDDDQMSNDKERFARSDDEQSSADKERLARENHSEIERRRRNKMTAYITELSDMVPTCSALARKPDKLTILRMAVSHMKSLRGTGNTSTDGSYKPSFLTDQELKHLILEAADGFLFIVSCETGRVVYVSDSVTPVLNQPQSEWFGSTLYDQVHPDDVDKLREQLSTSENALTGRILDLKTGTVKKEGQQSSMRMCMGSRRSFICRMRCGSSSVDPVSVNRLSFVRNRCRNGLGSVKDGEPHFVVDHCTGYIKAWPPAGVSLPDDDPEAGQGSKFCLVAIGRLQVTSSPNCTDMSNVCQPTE
Sequence of λCI_Arnt362 G341D (P27540 1-362 G341D): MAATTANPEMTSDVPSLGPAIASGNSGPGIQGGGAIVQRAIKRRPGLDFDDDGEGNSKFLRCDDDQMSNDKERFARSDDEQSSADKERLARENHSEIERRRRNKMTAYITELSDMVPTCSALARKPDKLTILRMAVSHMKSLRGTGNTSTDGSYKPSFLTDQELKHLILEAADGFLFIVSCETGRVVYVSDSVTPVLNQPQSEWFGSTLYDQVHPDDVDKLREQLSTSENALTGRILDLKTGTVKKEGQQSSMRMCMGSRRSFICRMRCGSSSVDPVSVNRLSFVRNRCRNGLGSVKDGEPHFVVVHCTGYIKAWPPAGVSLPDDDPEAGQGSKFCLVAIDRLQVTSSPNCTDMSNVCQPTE
Sequence of λCI_Arnt362 C308R (P27540 1-362 C308R): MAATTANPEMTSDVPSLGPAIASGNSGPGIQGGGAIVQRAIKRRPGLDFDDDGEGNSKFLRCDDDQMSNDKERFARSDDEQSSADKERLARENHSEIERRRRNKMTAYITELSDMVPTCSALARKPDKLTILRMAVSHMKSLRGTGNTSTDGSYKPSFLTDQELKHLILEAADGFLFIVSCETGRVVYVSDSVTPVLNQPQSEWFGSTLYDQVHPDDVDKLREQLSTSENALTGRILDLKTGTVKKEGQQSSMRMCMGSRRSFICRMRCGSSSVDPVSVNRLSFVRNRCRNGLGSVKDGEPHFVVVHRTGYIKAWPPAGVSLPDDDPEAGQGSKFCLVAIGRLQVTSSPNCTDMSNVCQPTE

B1: RNAPα_AhR278 (domain or fragment, mouse, UniProt P30561 1-278, looked up)
chain: MSSGANITYASRKRRKPVQKTVKPIPAEGIKSNPSKRHRDRLNTELDRLASLLPFPQDVINKLDKLSVLRLSVSYLRAKSFFDVALKSTPADRNGGQDQCRAQIRDWQDLQEGEFLLQALNGFVLVVTADALVFYASSTIQDYLGFQQSDVIHQSVYELIHTEDRAEFQRQLHWALNPDSAQGVDEAHGPPQAAVYYTPDQLPPENASFMERCFRCRLRCLLDNSSGFLAMNFQGRLKYLHGQNKKGKDGALLPPQLALFAIATPLQPPSILEIRTKN
β-gal activity relative to wt (λCI_Arnt362 G341D): 47 % of wt activity
β-gal activity relative to wt (λCI_Arnt362 M267K): < 60 % of wt β-gal activity
β-gal activity relative to wt (λCI_Arnt362 A339D): < 60 % of wt β-gal activity
β-gal activity relative to wt (λCI_Arnt362 V306D): < 60 % of wt β-gal activity
β-gal activity relative to wt (λCI_Arnt362 C308R): < 60 % of wt β-gal activity
β-gal activity relative to wt (λCI_Arnt362 L221H): < 60 % of wt β-gal activity
β-gal activity relative to wt (λCI_Arnt362 C265R): < 60 % of wt β-gal activity

— paper PMC3089468 (Nucleic Acids Research, 2011)
